From PMC10786891, “Massively parallel profiling of RNA-targeting CRISPR-Cas13d”

T1: EsCas13d, nuclease-dead (Eubacterium siraeum, UniProt B0MS50, R295A;H300A;R849A;H854A)
T1 sequence: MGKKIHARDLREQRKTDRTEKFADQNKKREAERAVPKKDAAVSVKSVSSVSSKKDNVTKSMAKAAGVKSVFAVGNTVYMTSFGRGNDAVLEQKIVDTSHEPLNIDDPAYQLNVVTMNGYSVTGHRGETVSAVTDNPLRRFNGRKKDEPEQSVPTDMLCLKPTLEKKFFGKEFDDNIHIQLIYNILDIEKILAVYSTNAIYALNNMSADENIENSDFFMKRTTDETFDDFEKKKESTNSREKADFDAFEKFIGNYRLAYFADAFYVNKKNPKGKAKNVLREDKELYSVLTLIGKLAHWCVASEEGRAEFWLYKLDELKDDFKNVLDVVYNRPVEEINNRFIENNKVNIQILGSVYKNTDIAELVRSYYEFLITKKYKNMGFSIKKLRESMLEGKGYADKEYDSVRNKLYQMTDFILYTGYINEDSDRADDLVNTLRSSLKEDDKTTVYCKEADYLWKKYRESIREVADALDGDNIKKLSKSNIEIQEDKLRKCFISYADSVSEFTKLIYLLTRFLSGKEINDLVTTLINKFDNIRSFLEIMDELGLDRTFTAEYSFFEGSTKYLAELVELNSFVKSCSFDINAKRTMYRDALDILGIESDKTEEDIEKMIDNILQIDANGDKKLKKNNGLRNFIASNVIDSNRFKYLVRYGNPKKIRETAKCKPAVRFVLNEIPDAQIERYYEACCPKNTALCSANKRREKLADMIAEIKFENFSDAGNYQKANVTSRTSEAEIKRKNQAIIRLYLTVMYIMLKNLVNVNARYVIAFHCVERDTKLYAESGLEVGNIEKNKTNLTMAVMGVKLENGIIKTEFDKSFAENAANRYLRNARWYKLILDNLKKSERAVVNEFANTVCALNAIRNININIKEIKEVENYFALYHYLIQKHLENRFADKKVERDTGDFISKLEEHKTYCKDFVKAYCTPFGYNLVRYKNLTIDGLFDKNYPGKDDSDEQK

B1: target 1 MT 5'PFS AGG 3'PFS UAC (mixed)
RNA 1: CACCCGUGCAAAAAUGCAGGGGUCUAAAACUGAGCGGAUAACCUCUCUAUGG
RNA 2: GGGAAUGGAUCCACAUCUACGAAUUCAGGCCAUAGAGAGGUUAUCCGCUCAUACAGAUCGGAAGAGCACACGU
B2: target 1 MT 5'PFS AGG 3'PFS UAG (mixed)
RNA 1: CACCCGUGCAAAAAUGCAGGGGUCUAAAACUGAGCGGAUAACCUCUCUAUGG
RNA 2: GGGAAUGGAUCCACAUCUACGAAUUCAGGCCAUAGAGAGGUUAUCCGCUCAUAGAGAUCGGAAGAGCACACGU
B3: target 1 MT 5'PFS UCC 3'PFS UUG (mixed)
RNA 1: CACCCGUGCAAAAAUGCAGGGGUCUAAAACUGAGCGGAUAACCUCUCUAUGG
RNA 2: GGGAAUGGAUCCACAUCUACGAAUUCUCCCCAUAGAGAGGUUAUCCGCUCAUUGAGAUCGGAAGAGCACACGU
B4: target 1 MT 5'PFS AGG 3'PFS UAU (mixed)
RNA 1: CACCCGUGCAAAAAUGCAGGGGUCUAAAACUGAGCGGAUAACCUCUCUAUGG
RNA 2: GGGAAUGGAUCCACAUCUACGAAUUCAGGCCAUAGAGAGGUUAUCCGCUCAUAUAGAUCGGAAGAGCACACGU
B5: target 1 MT 5'PFS UCC 3'PFS UUU (mixed)
RNA 1: CACCCGUGCAAAAAUGCAGGGGUCUAAAACUGAGCGGAUAACCUCUCUAUGG
RNA 2: GGGAAUGGAUCCACAUCUACGAAUUCUCCCCAUAGAGAGGUUAUCCGCUCAUUUAGAUCGGAAGAGCACACGU
B6: target 1 G13C,G15U (mixed)
RNA 1: CACCCGUGCAAAAAUGCAGGGGUCUAAAACUGAGCGGAUAACCUCUCUAUGG
RNA 2: GGGAAUGGAUCCACAUCUACGAAUUCGUACCAUAGAUACGUUAUCCGCUCACCGAGAUCGGAAGAGCACACGU
B7: target 1 MT 5'PFS ACG 3'PFS UAA (mixed)
RNA 1: CACCCGUGCAAAAAUGCAGGGGUCUAAAACUGAGCGGAUAACCUCUCUAUGG
RNA 2: GGGAAUGGAUCCACAUCUACGAAUUCACGCCAUAGAGAGGUUAUCCGCUCAUAAAGAUCGGAAGAGCACACGU
B8: target 1 MT 5'PFS UAA 3'PFS CAG (mixed)
RNA 1: CACCCGUGCAAAAAUGCAGGGGUCUAAAACUGAGCGGAUAACCUCUCUAUGG
RNA 2: GGGAAUGGAUCCACAUCUACGAAUUCUAACCAUAGAGAGGUUAUCCGCUCACAGAGAUCGGAAGAGCACACGU
B9: target 1 MT 5'PFS UAA 3'PFS CAA (mixed)
RNA 1: CACCCGUGCAAAAAUGCAGGGGUCUAAAACUGAGCGGAUAACCUCUCUAUGG
RNA 2: GGGAAUGGAUCCACAUCUACGAAUUCUAACCAUAGAGAGGUUAUCCGCUCACAAAGAUCGGAAGAGCACACGU
B10: target 1 MT 5'PFS UGG 3'PFS UCG (mixed)
RNA 1: CACCCGUGCAAAAAUGCAGGGGUCUAAAACUGAGCGGAUAACCUCUCUAUGG
RNA 2: GGGAAUGGAUCCACAUCUACGAAUUCUGGCCAUAGAGAGGUUAUCCGCUCAUCGAGAUCGGAAGAGCACACGU
B11: target 1 MT 5'PFS UGG 3'PFS UCA (mixed)
RNA 1: CACCCGUGCAAAAAUGCAGGGGUCUAAAACUGAGCGGAUAACCUCUCUAUGG
RNA 2: GGGAAUGGAUCCACAUCUACGAAUUCUGGCCAUAGAGAGGUUAUCCGCUCAUCAAGAUCGGAAGAGCACACGU
B12: target 1 MT 5'PFS UCG 3'PFS UGA (mixed)
RNA 1: CACCCGUGCAAAAAUGCAGGGGUCUAAAACUGAGCGGAUAACCUCUCUAUGG
RNA 2: GGGAAUGGAUCCACAUCUACGAAUUCUCGCCAUAGAGAGGUUAUCCGCUCAUGAAGAUCGGAAGAGCACACGU
B13: target 1 MT 5'PFS GCU 3'PFS CAU (mixed)
RNA 1: CACCCGUGCAAAAAUGCAGGGGUCUAAAACUGAGCGGAUAACCUCUCUAUGG
RNA 2: GGGAAUGGAUCCACAUCUACGAAUUCGCUCCAUAGAGAGGUUAUCCGCUCACAUAGAUCGGAAGAGCACACGU
B14: target 1 MT 5'PFS UAA 3'PFS AGG (mixed)
RNA 1: CACCCGUGCAAAAAUGCAGGGGUCUAAAACUGAGCGGAUAACCUCUCUAUGG
RNA 2: GGGAAUGGAUCCACAUCUACGAAUUCUAACCAUAGAGAGGUUAUCCGCUCAAGGAGAUCGGAAGAGCACACGU
B15: target 1 MT 5'PFS UAA 3'PFS AGA (mixed)
RNA 1: CACCCGUGCAAAAAUGCAGGGGUCUAAAACUGAGCGGAUAACCUCUCUAUGG
RNA 2: GGGAAUGGAUCCACAUCUACGAAUUCUAACCAUAGAGAGGUUAUCCGCUCAAGAAGAUCGGAAGAGCACACGU
B16: target 1 MT 5'PFS GCU 3'PFS CAA (mixed)
RNA 1: CACCCGUGCAAAAAUGCAGGGGUCUAAAACUGAGCGGAUAACCUCUCUAUGG
RNA 2: GGGAAUGGAUCCACAUCUACGAAUUCGCUCCAUAGAGAGGUUAUCCGCUCACAAAGAUCGGAAGAGCACACGU
B17: target 1 insG 3' of 14,insG 3' of 8 (mixed)
RNA 1: CACCCGUGCAAAAAUGCAGGGGUCUAAAACUGAGCGGAUAACCUCUCUAUGG
RNA 2: GGGAAUGGAUCCACAUCUACGAAUUCGUACCAUAGAGAGGGUUAUGCCGCUCACCGAGAUCGGAAGAGCACACGU
B18: target 1 MT 5'PFS GCC 3'PFS CGC (mixed)
RNA 1: CACCCGUGCAAAAAUGCAGGGGUCUAAAACUGAGCGGAUAACCUCUCUAUGG
RNA 2: GGGAAUGGAUCCACAUCUACGAAUUCGCCCCAUAGAGAGGUUAUCCGCUCACGCAGAUCGGAAGAGCACACGU
B19: target 1 MT 5'PFS GCC 3'PFS CGA (mixed)
RNA 1: CACCCGUGCAAAAAUGCAGGGGUCUAAAACUGAGCGGAUAACCUCUCUAUGG
RNA 2: GGGAAUGGAUCCACAUCUACGAAUUCGCCCCAUAGAGAGGUUAUCCGCUCACGAAGAUCGGAAGAGCACACGU
B20: target 1 MT 5'PFS GCC 3'PFS CGG (mixed)
RNA 1: CACCCGUGCAAAAAUGCAGGGGUCUAAAACUGAGCGGAUAACCUCUCUAUGG
RNA 2: GGGAAUGGAUCCACAUCUACGAAUUCGCCCCAUAGAGAGGUUAUCCGCUCACGGAGAUCGGAAGAGCACACGU
B21: target 1 MT 5'PFS CAG 3'PFS UGA (mixed)
RNA 1: CACCCGUGCAAAAAUGCAGGGGUCUAAAACUGAGCGGAUAACCUCUCUAUGG
RNA 2: GGGAAUGGAUCCACAUCUACGAAUUCCAGCCAUAGAGAGGUUAUCCGCUCAUGAAGAUCGGAAGAGCACACGU
B22: target 1 MT 5'PFS UAC 3'PFS AUG (mixed)
RNA 1: CACCCGUGCAAAAAUGCAGGGGUCUAAAACUGAGCGGAUAACCUCUCUAUGG
RNA 2: GGGAAUGGAUCCACAUCUACGAAUUCUACCCAUAGAGAGGUUAUCCGCUCAAUGAGAUCGGAAGAGCACACGU
B23: target 1 MT 5'PFS AGG 3'PFS UCC (mixed)
RNA 1: CACCCGUGCAAAAAUGCAGGGGUCUAAAACUGAGCGGAUAACCUCUCUAUGG
RNA 2: GGGAAUGGAUCCACAUCUACGAAUUCAGGCCAUAGAGAGGUUAUCCGCUCAUCCAGAUCGGAAGAGCACACGU
B24: target 1 MT 5'PFS GCC 3'PFS CGU (mixed)
RNA 1: CACCCGUGCAAAAAUGCAGGGGUCUAAAACUGAGCGGAUAACCUCUCUAUGG
RNA 2: GGGAAUGGAUCCACAUCUACGAAUUCGCCCCAUAGAGAGGUUAUCCGCUCACGUAGAUCGGAAGAGCACACGU
B25: target 1 MT 5'PFS UAC 3'PFS AUU (mixed)
RNA 1: CACCCGUGCAAAAAUGCAGGGGUCUAAAACUGAGCGGAUAACCUCUCUAUGG
RNA 2: GGGAAUGGAUCCACAUCUACGAAUUCUACCCAUAGAGAGGUUAUCCGCUCAAUUAGAUCGGAAGAGCACACGU
B26: target 1 MT 5'PFS CCC 3'PFS UAA (mixed)
RNA 1: CACCCGUGCAAAAAUGCAGGGGUCUAAAACUGAGCGGAUAACCUCUCUAUGG
RNA 2: GGGAAUGGAUCCACAUCUACGAAUUCCCCCCAUAGAGAGGUUAUCCGCUCAUAAAGAUCGGAAGAGCACACGU
B27: target 1 MT 5'PFS CUG 3'PFS AUU (mixed)
RNA 1: CACCCGUGCAAAAAUGCAGGGGUCUAAAACUGAGCGGAUAACCUCUCUAUGG
RNA 2: GGGAAUGGAUCCACAUCUACGAAUUCCUGCCAUAGAGAGGUUAUCCGCUCAAUUAGAUCGGAAGAGCACACGU
B28: target 1 U3G,G15A (mixed)
RNA 1: CACCCGUGCAAAAAUGCAGGGGUCUAAAACUGAGCGGAUAACCUCUCUAUGG
RNA 2: GGGAAUGGAUCCACAUCUACGAAUUCGUACCAUAGAAAGGUUAUCCGCGCACCGAGAUCGGAAGAGCACACGU

Target: T1, EsCas13d, nuclease-dead
Assay: crRNA (strand 1, pre-loaded); Mg2+; 40 mM Tris-HCl pH 7.5, 150 mM NaCl, 6 mM MgCl2, 1 mM DTT, 0.1% Tween-20, 0.2 mg/ml BSA; 25 C; 10 min per concentration, then washed
Settings: tags: His6-TwinStrep-SUMO cleaved; N-terminal SNAP kept (SNAP-Surface 488); label: 3' end held by stalled T7 RNA polymerase

Binder | Kd [nM]
B1 | 32 ± 13
B2 | 23 ± 6.5
B3 | 13.3 ± 2.45
B4 | 35 ± 16.5
B5 | 11 ± 4
B6 | 66 ± 18
B7 | 13.5 ± 5
B8 | 53 ± 22
B9 | ~52.5
B10 | 71.5 ± 22.5
B11 | 70 ± 29
B12 | 33 ± 9.5
B13 | 51 ± 15
B14 | ~75
B15 | 37 ± 6.5
B16 | ~60
B17 | 9.7 ± 0.7
B18 | 15.5 ± 6
B19 | 18.5 ± 7.5
B20 | 26.1 ± 9.1
B21 | ~60
B22 | 43 ± 20.5
B23 | 49 ± 19
B24 | 10.1 ± 1.65
B25 | 26.5 ± 8
B26 | ~11
B27 | 6.05 ± 1.6
B28 | 17.5 ± 1
